# Assay results taken from US20260001928A1 (CORTERIA PHARMACEUTICALS, priority 2022, published 2026).
# *1 amine or outer side, *2 acyl side, *3 side chain or, on linkers, in order; H or OH if unused. Side-chain parts run from the residue outwards. [ ]: non-standard residue; d: D form. The star is where a group is joined. C16 diacid = O=C(O)CCCCCCCCCCCCCCC(=O)*; γGlu = O=C(O)[C@H](CCC(=O)[*:2])N[*:1]; Api = NC1(C(=O)O)CCNCC1; Aib = CC(C)(N)C(=O)O; Propionyl = CCC(=O)*
# T1: CRF1R receptor (UniProt P34998 24-415, limits assumed)
# T1 sequence (looked up): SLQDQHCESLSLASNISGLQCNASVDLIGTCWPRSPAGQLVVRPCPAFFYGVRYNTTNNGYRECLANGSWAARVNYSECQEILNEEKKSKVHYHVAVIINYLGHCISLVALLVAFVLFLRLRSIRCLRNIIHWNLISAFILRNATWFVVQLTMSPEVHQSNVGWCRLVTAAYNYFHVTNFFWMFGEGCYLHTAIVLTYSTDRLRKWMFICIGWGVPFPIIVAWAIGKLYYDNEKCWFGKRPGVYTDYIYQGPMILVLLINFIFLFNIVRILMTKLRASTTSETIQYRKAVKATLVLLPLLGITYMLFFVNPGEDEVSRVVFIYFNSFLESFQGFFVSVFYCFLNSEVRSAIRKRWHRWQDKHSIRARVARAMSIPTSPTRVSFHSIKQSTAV
# B1: SEQ ID NO 57 (peptide)
# peptide: Ac-IVLSLD[dV]PIKLK([γGlu-C16 diacid])KILLEQEKQKKQREQAETN[Api]QILAQV-NH2
# SMILES: CC[C@H](C)[C@H](NC(C)=O)C(=O)N[C@H](C(=O)N[C@@H](CC(C)C)C(=O)N[C@@H](CO)C(=O)N[C@@H](CC(C)C)C(=O)N[C@@H](CC(=O)O)C(=O)N[C@@H](C(=O)N1CCC[C@H]1C(=O)N[C@H](C(=O)N[C@@H](CCCCN)C(=O)N[C@@H](CC(C)C)C(=O)N[C@@H](CCCCNC(=O)CC[C@H](NC(=O)CCCCCCCCCCCCCCC(=O)O)C(=O)O)C(=O)N[C@@H](CCCCN)C(=O)N[C@H](C(=O)N[C@@H](CC(C)C)C(=O)N[C@@H](CC(C)C)C(=O)N[C@@H](CCC(=O)O)C(=O)N[C@@H](CCC(N)=O)C(=O)N[C@@H](CCC(=O)O)C(=O)N[C@@H](CCCCN)C(=O)N[C@@H](CCC(N)=O)C(=O)N[C@@H](CCCCN)C(=O)N[C@@H](CCCCN)C(=O)N[C@@H](CCC(N)=O)C(=O)N[C@@H](CCCNC(=N)N)C(=O)N[C@@H](CCC(=O)O)C(=O)N[C@@H](CCC(N)=O)C(=O)N[C@@H](C)C(=O)N[C@@H](CCC(=O)O)C(=O)N[C@H](C(=O)N[C@@H](CC(N)=O)C(=O)NC1(C(=O)N[C@@H](CCC(N)=O)C(=O)N[C@H](C(=O)N[C@@H](CC(C)C)C(=O)N[C@@H](C)C(=O)N[C@@H](CCC(N)=O)C(=O)N[C@H](C(N)=O)C(C)C)[C@@H](C)CC)CCNCC1)[C@@H](C)O)[C@@H](C)CC)[C@@H](C)CC)C(C)C)C(C)C
# B2: SEQ ID NO 78 (peptide)
# peptide: Propionyl-VLSLD[dV]PIKLK([γGlu-C16 diacid])KILLEQEKQKKQREQAETN[Aib]QILAQV-NH2
# SMILES: CCC(=O)N[C@H](C(=O)N[C@@H](CC(C)C)C(=O)N[C@@H](CO)C(=O)N[C@@H](CC(C)C)C(=O)N[C@@H](CC(=O)O)C(=O)N[C@@H](C(=O)N1CCC[C@H]1C(=O)N[C@H](C(=O)N[C@@H](CCCCN)C(=O)N[C@@H](CC(C)C)C(=O)N[C@@H](CCCCNC(=O)CC[C@H](NC(=O)CCCCCCCCCCCCCCC(=O)O)C(=O)O)C(=O)N[C@@H](CCCCN)C(=O)N[C@H](C(=O)N[C@@H](CC(C)C)C(=O)N[C@@H](CC(C)C)C(=O)N[C@@H](CCC(=O)O)C(=O)N[C@@H](CCC(N)=O)C(=O)N[C@@H](CCC(=O)O)C(=O)N[C@@H](CCCCN)C(=O)N[C@@H](CCC(N)=O)C(=O)N[C@@H](CCCCN)C(=O)N[C@@H](CCCCN)C(=O)N[C@@H](CCC(N)=O)C(=O)N[C@@H](CCCNC(=N)N)C(=O)N[C@@H](CCC(=O)O)C(=O)N[C@@H](CCC(N)=O)C(=O)N[C@@H](C)C(=O)N[C@@H](CCC(=O)O)C(=O)N[C@H](C(=O)N[C@@H](CC(N)=O)C(=O)NC(C)(C)C(=O)N[C@@H](CCC(N)=O)C(=O)N[C@H](C(=O)N[C@@H](CC(C)C)C(=O)N[C@@H](C)C(=O)N[C@@H](CCC(N)=O)C(=O)N[C@H](C(N)=O)C(C)C)[C@@H](C)CC)[C@@H](C)O)[C@@H](C)CC)[C@@H](C)CC)C(C)C)C(C)C
# B3: SEQ ID NO 47 (peptide)
# peptide: Ac-IVLSLD[dV]PIKLK([γGlu-C16 diacid])KILLEQEKQKKQREQAETNAQILAQV-NH2
# SMILES: CC[C@H](C)[C@H](NC(C)=O)C(=O)N[C@H](C(=O)N[C@@H](CC(C)C)C(=O)N[C@@H](CO)C(=O)N[C@@H](CC(C)C)C(=O)N[C@@H](CC(=O)O)C(=O)N[C@@H](C(=O)N1CCC[C@H]1C(=O)N[C@H](C(=O)N[C@@H](CCCCN)C(=O)N[C@@H](CC(C)C)C(=O)N[C@@H](CCCCNC(=O)CC[C@H](NC(=O)CCCCCCCCCCCCCCC(=O)O)C(=O)O)C(=O)N[C@@H](CCCCN)C(=O)N[C@H](C(=O)N[C@@H](CC(C)C)C(=O)N[C@@H](CC(C)C)C(=O)N[C@@H](CCC(=O)O)C(=O)N[C@@H](CCC(N)=O)C(=O)N[C@@H](CCC(=O)O)C(=O)N[C@@H](CCCCN)C(=O)N[C@@H](CCC(N)=O)C(=O)N[C@@H](CCCCN)C(=O)N[C@@H](CCCCN)C(=O)N[C@@H](CCC(N)=O)C(=O)N[C@@H](CCCNC(=N)N)C(=O)N[C@@H](CCC(=O)O)C(=O)N[C@@H](CCC(N)=O)C(=O)N[C@@H](C)C(=O)N[C@@H](CCC(=O)O)C(=O)N[C@H](C(=O)N[C@@H](CC(N)=O)C(=O)N[C@@H](C)C(=O)N[C@@H](CCC(N)=O)C(=O)N[C@H](C(=O)N[C@@H](CC(C)C)C(=O)N[C@@H](C)C(=O)N[C@@H](CCC(N)=O)C(=O)N[C@H](C(N)=O)C(C)C)[C@@H](C)CC)[C@@H](C)O)[C@@H](C)CC)[C@@H](C)CC)C(C)C)C(C)C
# B4: SEQ ID NO 17 (peptide)
# peptide: Ac-IVLSLD[dV]PIKLK([γGlu-C16 diacid])QILLKQERQKKQREQAEKNEQILEQV-NH2
# SMILES: CC[C@H](C)[C@H](NC(C)=O)C(=O)N[C@H](C(=O)N[C@@H](CC(C)C)C(=O)N[C@@H](CO)C(=O)N[C@@H](CC(C)C)C(=O)N[C@@H](CC(=O)O)C(=O)N[C@@H](C(=O)N1CCC[C@H]1C(=O)N[C@H](C(=O)N[C@@H](CCCCN)C(=O)N[C@@H](CC(C)C)C(=O)N[C@@H](CCCCNC(=O)CC[C@H](NC(=O)CCCCCCCCCCCCCCC(=O)O)C(=O)O)C(=O)N[C@@H](CCC(N)=O)C(=O)N[C@H](C(=O)N[C@@H](CC(C)C)C(=O)N[C@@H](CC(C)C)C(=O)N[C@@H](CCCCN)C(=O)N[C@@H](CCC(N)=O)C(=O)N[C@@H](CCC(=O)O)C(=O)N[C@@H](CCCNC(=N)N)C(=O)N[C@@H](CCC(N)=O)C(=O)N[C@@H](CCCCN)C(=O)N[C@@H](CCCCN)C(=O)N[C@@H](CCC(N)=O)C(=O)N[C@@H](CCCNC(=N)N)C(=O)N[C@@H](CCC(=O)O)C(=O)N[C@@H](CCC(N)=O)C(=O)N[C@@H](C)C(=O)N[C@@H](CCC(=O)O)C(=O)N[C@@H](CCCCN)C(=O)N[C@@H](CC(N)=O)C(=O)N[C@@H](CCC(=O)O)C(=O)N[C@@H](CCC(N)=O)C(=O)N[C@H](C(=O)N[C@@H](CC(C)C)C(=O)N[C@@H](CCC(=O)O)C(=O)N[C@@H](CCC(N)=O)C(=O)N[C@H](C(N)=O)C(C)C)[C@@H](C)CC)[C@@H](C)CC)[C@@H](C)CC)C(C)C)C(C)C
# B5: SEQ ID NO 21 (peptide)
# peptide: Ac-IVLSLD[dV]PIKLK([γGlu-C16 diacid])KILLKQERQKKQREQAEKN[Aib]QILEQV-NH2
# SMILES: CC[C@H](C)[C@H](NC(C)=O)C(=O)N[C@H](C(=O)N[C@@H](CC(C)C)C(=O)N[C@@H](CO)C(=O)N[C@@H](CC(C)C)C(=O)N[C@@H](CC(=O)O)C(=O)N[C@@H](C(=O)N1CCC[C@H]1C(=O)N[C@H](C(=O)N[C@@H](CCCCN)C(=O)N[C@@H](CC(C)C)C(=O)N[C@@H](CCCCNC(=O)CC[C@H](NC(=O)CCCCCCCCCCCCCCC(=O)O)C(=O)O)C(=O)N[C@@H](CCCCN)C(=O)N[C@H](C(=O)N[C@@H](CC(C)C)C(=O)N[C@@H](CC(C)C)C(=O)N[C@@H](CCCCN)C(=O)N[C@@H](CCC(N)=O)C(=O)N[C@@H](CCC(=O)O)C(=O)N[C@@H](CCCNC(=N)N)C(=O)N[C@@H](CCC(N)=O)C(=O)N[C@@H](CCCCN)C(=O)N[C@@H](CCCCN)C(=O)N[C@@H](CCC(N)=O)C(=O)N[C@@H](CCCNC(=N)N)C(=O)N[C@@H](CCC(=O)O)C(=O)N[C@@H](CCC(N)=O)C(=O)N[C@@H](C)C(=O)N[C@@H](CCC(=O)O)C(=O)N[C@@H](CCCCN)C(=O)N[C@@H](CC(N)=O)C(=O)NC(C)(C)C(=O)N[C@@H](CCC(N)=O)C(=O)N[C@H](C(=O)N[C@@H](CC(C)C)C(=O)N[C@@H](CCC(=O)O)C(=O)N[C@@H](CCC(N)=O)C(=O)N[C@H](C(N)=O)C(C)C)[C@@H](C)CC)[C@@H](C)CC)[C@@H](C)CC)C(C)C)C(C)C
# B6: SEQ ID NO 56 (peptide)
# peptide: Ac-IVLSLD[dV]PIKLK([γGlu-C16 diacid])KILLEQEKQKKQREQAETNEQILAQV-NH2
# SMILES: CC[C@H](C)[C@H](NC(C)=O)C(=O)N[C@H](C(=O)N[C@@H](CC(C)C)C(=O)N[C@@H](CO)C(=O)N[C@@H](CC(C)C)C(=O)N[C@@H](CC(=O)O)C(=O)N[C@@H](C(=O)N1CCC[C@H]1C(=O)N[C@H](C(=O)N[C@@H](CCCCN)C(=O)N[C@@H](CC(C)C)C(=O)N[C@@H](CCCCNC(=O)CC[C@H](NC(=O)CCCCCCCCCCCCCCC(=O)O)C(=O)O)C(=O)N[C@@H](CCCCN)C(=O)N[C@H](C(=O)N[C@@H](CC(C)C)C(=O)N[C@@H](CC(C)C)C(=O)N[C@@H](CCC(=O)O)C(=O)N[C@@H](CCC(N)=O)C(=O)N[C@@H](CCC(=O)O)C(=O)N[C@@H](CCCCN)C(=O)N[C@@H](CCC(N)=O)C(=O)N[C@@H](CCCCN)C(=O)N[C@@H](CCCCN)C(=O)N[C@@H](CCC(N)=O)C(=O)N[C@@H](CCCNC(=N)N)C(=O)N[C@@H](CCC(=O)O)C(=O)N[C@@H](CCC(N)=O)C(=O)N[C@@H](C)C(=O)N[C@@H](CCC(=O)O)C(=O)N[C@H](C(=O)N[C@@H](CC(N)=O)C(=O)N[C@@H](CCC(=O)O)C(=O)N[C@@H](CCC(N)=O)C(=O)N[C@H](C(=O)N[C@@H](CC(C)C)C(=O)N[C@@H](C)C(=O)N[C@@H](CCC(N)=O)C(=O)N[C@H](C(N)=O)C(C)C)[C@@H](C)CC)[C@@H](C)O)[C@@H](C)CC)[C@@H](C)CC)C(C)C)C(C)C
# Target: T1, CRF1R receptor
# Assay: cell-based or functional assay
row,Emax (% I),Binder
1,24%,B1
2,7%,B2
3,10%,B3
4,12%,B4
5,5%,B5
6,3%,B6

# Target: human corticotropin-releasing factor 2a (CRF2a receptor) (human), Q13324
# Assay: cell-based or functional assay
# human corticotropin-releasing factor 2a (CRF2a receptor) (human), Q13324, sequence (Q13324 20-411): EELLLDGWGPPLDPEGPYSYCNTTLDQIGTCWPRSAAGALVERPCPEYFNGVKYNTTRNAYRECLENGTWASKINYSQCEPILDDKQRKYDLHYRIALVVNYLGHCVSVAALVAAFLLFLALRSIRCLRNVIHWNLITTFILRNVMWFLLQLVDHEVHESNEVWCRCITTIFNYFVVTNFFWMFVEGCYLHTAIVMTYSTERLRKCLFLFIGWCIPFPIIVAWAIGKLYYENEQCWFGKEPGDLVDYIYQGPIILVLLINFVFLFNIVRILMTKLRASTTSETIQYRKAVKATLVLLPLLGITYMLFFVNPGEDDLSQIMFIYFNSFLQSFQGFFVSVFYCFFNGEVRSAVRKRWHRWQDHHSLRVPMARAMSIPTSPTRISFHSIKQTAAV
row,EC50 [nM] (cAMP),Binder
1,0.39 nM,B1
2,0.73 nM,B2
3,0.09 nM,B3
4,0.21 nM,B4
5,0.34 nM,B5
6,0.3 nM,B6
